Laboratory results reported in patent US20230340112A1.

Experiments:
[1] = target: mDC cell surface SIRPα (human) (UniProt P78324); assay: FACS binding; Donor #296; isotype control, flat curve
[2] = target: mDC cell surface SIRPα (human) (UniProt P78324); assay: FACS binding; Donor #298; isotype control, flat curve
[3] = target: cell-surface SIRPα (mDC) (human) (UniProt P78324); assay: FACS blocking of CD47/SIRPα; Donor #296; isotype control, flat curve
[4] = target: cell-surface SIRPα (mDC) (human) (UniProt P78324); assay: FACS blocking of CD47/SIRPα; Donor #298; isotype control, flat curve
[5] = target: human SIRPα expressed on the surface of human monocyte-derived dendritic cells (human) (UniProt P78324); assay: flow cytometry on human monocyte-derived dendritic cells
Sequence of human SIRPα expressed on the surface of human monocyte-derived dendritic cells (human) (P78324 31-504): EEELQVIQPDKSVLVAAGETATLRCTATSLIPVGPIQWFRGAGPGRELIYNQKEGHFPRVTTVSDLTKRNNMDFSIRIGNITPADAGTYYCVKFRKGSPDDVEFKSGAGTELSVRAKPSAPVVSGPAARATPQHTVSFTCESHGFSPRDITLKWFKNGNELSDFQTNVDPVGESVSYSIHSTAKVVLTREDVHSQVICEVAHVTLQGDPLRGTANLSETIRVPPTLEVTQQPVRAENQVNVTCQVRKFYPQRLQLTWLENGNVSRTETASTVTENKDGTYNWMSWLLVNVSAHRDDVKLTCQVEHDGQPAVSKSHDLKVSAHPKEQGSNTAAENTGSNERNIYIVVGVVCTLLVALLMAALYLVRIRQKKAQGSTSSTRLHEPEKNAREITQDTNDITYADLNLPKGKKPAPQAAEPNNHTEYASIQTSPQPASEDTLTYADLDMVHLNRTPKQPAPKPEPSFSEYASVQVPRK

Sequence of mDC cell surface SIRPα (human) (P78324 31-504): as above
Sequence of cell-surface SIRPα (mDC) (human) (P78324 31-504): as above

EC50 [1]	EC50 [2]	IC50 [3]	IC50 [4]	Kd [5]	Substance
38.6 nM	0.025 nM	0.424 nM	0.0177 nM		IgG4 isotype
				0.0021 nM	IgG4 isotype (antibody)
